Source: article PMC6666309 (Biochemistry, 2019)

B1: full-length progranulin (natural protein, human, UniProt P28799 18-593, looked up)
chain: TRCPDGQFCPVACCLDPGGASYSCCRPLLDKWPTTLSRHLGGPCQVDAHCSAGHSCIFTVSGTSSCCPFPEAVACGDGHHCCPRGFHCSADGRSCFQRSGNNSVGAIQCPDSQFECPDFSTCCVMVDGSWGCCPMPQASCCEDRVHCCPHGAFCDLVHTRCITPTGTHPLAKKLPAQRTNRAVALSSSVMCPDARSRCPDGSTCCELPSGKYGCCPMPNATCCSDHLHCCPQDTVCDLIQSKCLSKENATTDLLTKLPAHTVGDVKCDMEVSCPDGYTCCRLQSGAWGCCPFTQAVCCEDHIHCCPAGFTCDTQKGTCEQGPHQVPWMEKAPAHLSLPDPQALKRDVPCDNVSSCPSSDTCCQLTSGEWGCCPIPEAVCCSDHQHCCPQGYTCVAEGQCQRGSEIVAGLEKMPARRASLSHPRDIGCDQHTSCPVGQTCCPSLGGSWACCQLPHAVCCEDRQHCCPAGYTCNVKARSCEKEVVSAQPATFLARSPHVGVKDVECGEGHFCHDNQTCCRDNRQGWACCPYRQGVCCADRRHCCPAGFRCAARGTKCLRREAPRWDAPLRDPALRQLL
B2: pro-cathepsin D (enzyme)
chain: not shown
modifications: fluorescently labelled in the MST assay (dye and site not stated)

Experiments:
pro-cathepsin D = target: B2; test: cell-based or functional assay
Chain of pro-cathepsin D (P07339 21-412): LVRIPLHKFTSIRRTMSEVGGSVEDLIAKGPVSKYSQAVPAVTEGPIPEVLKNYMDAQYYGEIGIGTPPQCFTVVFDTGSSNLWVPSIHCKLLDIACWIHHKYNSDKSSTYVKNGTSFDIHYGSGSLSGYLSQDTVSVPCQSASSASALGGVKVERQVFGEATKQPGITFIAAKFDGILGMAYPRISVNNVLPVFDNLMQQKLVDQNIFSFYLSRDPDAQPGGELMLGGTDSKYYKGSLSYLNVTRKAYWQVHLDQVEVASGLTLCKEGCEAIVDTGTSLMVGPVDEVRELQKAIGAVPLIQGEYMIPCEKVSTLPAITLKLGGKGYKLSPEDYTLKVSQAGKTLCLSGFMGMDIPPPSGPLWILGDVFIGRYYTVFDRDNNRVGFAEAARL

full-length progranulin = target: B1; test: MST

Binder | DSF - ΔTm of proCTSD (1 μM proCTSD with 2 μM PGRN, pH 7.4) (pro-cathepsin D) [°C] | Kd (full-length progranulin) [nM]
B1 | -0.41 | –
B2 | – | 950
